Data: patent US7745417B2, “Nucleosides or nucleotides having novel unnatural bases and use thereof” (RIKEN, priority 2002, dated 2010)
Read-outs that look alike come from different tables or passages of the source.

Assays:
[1] = Filter binding % (filter binding method, Table 2); details: triplicate average, standard deviation in parentheses
Description: (§1) The binding efficiency to Raf-1 RBD was measured for each RNA by a filter binding method (Raf-1 RBD/RNA=300:5 nM). Standard deviations are in parentheses. ^a RNA 9A transcribed from s-free template DNA in the presence of 0.4 mM 5IUTP. ^b RNA 9A transcribed from s-free template DNA in the presence of 0.25 mM 5IyTP.

T7 RNA polymerase = T7 RNA polymerase (Escherichia phage T7, UniProt P00573); details: for misincorporation: 5IyTP +; for 5Iyp (number of nucleotides in transcription product): transcribed with 0.25 mM 5IyTP (+), theoretical number in parentheses
Description: The reaction composition of T7 transcription may be the same as described in Ohtsuki et al., 2001. Details are as follows: 40 mM Tris-HCl (pH 8.0), 5 mM DTT, 24 mM MgCl2, 2 mM spermidine, 0.01% TritonX-100, 10 mM GMP, 1 mM NTPs, 0-0.25 mM 5IyTP, 0.2 μl/μl template DNA, and 2.5 U/μl T7 RNA polymerase (TaKaRa). After enzymatic reaction at 37° C. for 6 hours, each reaction product was purified by electrophoresis on an 8% polyacrylamide-7M urea gel.
When T7 transcription reaction is performed in the presence of [α-^32P]ATP or [α-^32P]GTP, a nucleoside 3′-phosphate (Np) 5′-terminal to A or G is labeled with ^32P. Each gel-purified RNA was completely digested into Np by RNase T2 (Sigma). If 5Iy is introduced at residue 84 or 92, the nucleoside 3′-phosphate of 5Iy (5IyTp) is labeled with ^32P via [α-^32P]GTP, while if 5Iy is introduced at residue 87, 5IyTp is labeled via [α-^32P]ATP (FIG. 5, FIG. 6-b). For base composition analysis of 5Iy-containing RNAs, each of the completely digested products was separated by 2D-TLC and determined for each nucleotide content.
More specifically, to completely digest RNA, 0.75 μl RNase T2 solution (5 units/μl; 100 mM NaOAc pH 4.5, 10% glycerol) was added to 4.25 μl aqueous solution containing the labeled RNA and a 0.25 OD E. coli-derived tRNA mixture (Sigma), followed by overnight enzymatic reaction at 37° C. A part of the reaction solution was spotted onto a 10 cm×10 cm TLC plate (Funacell SF; Funakoshi Co., Ltd., Japan) and developed in two dimensions. Developing solutions for the first and second dimensions are isobutyric acid/ammonia/water (66:1:33 by volume) and 2-propanol/hydrochloric acid/water (70:15:15 by volume), respectively. The developed spots were detected and quantified using a bioimaging analyzer (BAS2500, Fuji Photo Film Co., Ltd., Japan).
Each value was calculated from the following equation. The theoretical numbers of nucleotides are in parentheses.

Raf-1 RBD = biological target: T1, Raf-1 RBD (Homo sapiens, UniProt P04049); assay: Binding efficiency to Raf-1 RBD by filter binding method; details: Raf-1 RBD/RNA=300:5 nM; triplicate average, standard deviation in parentheses
T1 construct: human Raf-1 RBD (amino acid residues 51-131); GST (N); made in house; host or cells: E. coli
Description: In this example, to examine changes in binding activity to Raf-1 RBD, each RNA site-selectively introduced with 5Iy was measured for binding efficiency by a filter binding method (Table 2). […] This means that the inventive method for site-selective introduction of 5Iy is advantageous.
as §1
Each RNA whose 5′-terminus was ^32P -labeled was warmed in Buffer A at 75° C. for 3 minutes and then allowed to stand at room temperature for 10 minutes or longer to form the secondary structure of RNA. On the other hand, to prepare Raf-1 RBD, human Raf-1 RBD (amino acid residues 51-131) was expressed as a GST (glutathione transferase)-fusion protein in E. coli cells and purified from the supernatant of crushed cells by column chromatography. Rat RGL RBD (amino acid residues 632-734) [Koyama et al., 1996] and human B-Raf RBD (amino acid residues 149-226) were also expressed as GST-fusion proteins in E. coli cells and purified in the same manner.

Raf-1 GST-RBD = biological target: T2, Raf-1 GST-RBD (Homo sapiens, UniProt P04049); assay: Gel shift assay of binding to GST-RBD; details: 5% non-denaturing polyacrylamide gel
T2 construct: human Raf-1 RBD (amino acid residues 51-131); GST (N); made in house; host or cells: E. coli
Description: The product (XL) obtained by crosslinking reaction an equal concentration (0.1 μM) mixture of 9A(5Iy87) and Raf-1 RBD was purified from a gel and analyzed for binding between XL and GSTRBD by gel shift assay. As a control of RNA 9A dimer, RNA 9A molecules were also linked in tandem to newly prepare RNA 9A×2 (200 nucleotides in total length), followed by gel shift assay. RNA 9A×2 is an RNA molecule of 200 nucleotides in total length that has two essential regions of RNA 9A (residues 1-80) in its molecule. It was prepared by transcription reaction using T7 RNA polymerase (Epicentre) and subcloned into vector pCR®II-TOPO (Invitrogen).
Each RNA whose 5′-terminus was ^32P-labeled (0.8 pmol) was warmed in 20 μl Buffer A at 75° C. for 3 minutes and then allowed to stand at room temperature for 10 minutes or longer to form the secondary structure of RNA. […] Each aliquot was supplemented with 5 μl Raf-1 GST-RBD solution (containing, in addition to RBD, 160 μg/ml BSA, 1 mM DTT and 10% glycerol in Buffer A), incubated at 37° C. for 30 minutes, and then analyzed by electrophoresis on a 5% non-denaturing polyacrylamide gel (acrylamide:bisacrylamide=39:1). […]

[2] = biological target: B-Raf RBD/Ras interaction (Homo sapiens, UniProt P15056)
[3] = system: Ras-induced Raf-1 activation; assay: Ras-induced Raf-1 activation in a cell-free system; assay type: biochemical; details: membrane fraction of Sf9 cells expressing Ras and Raf-1, cytoplasmic fraction of HEK293 cells
[4] = biological target: T3, Raf-1 RBD/Ras interaction (Homo sapiens, UniProt P04049); assay: Inhibition of Raf-1 RBD/Ras interaction; assay type: biochemical; details: compared with aptamer from N60 pool
T3 construct: GST (N); made in house; host or cells: E. coli
From the text: In this reference example, with the aim of designing a novel RNA molecule selectively regulating Ras/Raf-1 interaction in cellular signal transduction, RNA aptamers specifically binding to Raf-1 RBD were isolated by in vitro selection techniques. An RNA aptamer obtained from a pool containing random sequences of 60 nucleotides (N60) inhibited Raf-1 RBD/Ras interaction. […] In response to this, the selection technique was partially modified and used for selection on a pool containing newly designed RNA random sequences of 45 nucleotides (N45). The RT-PCR products were each subcloned into TA cloning vector pCR®II-TOPO using a TOPO TA Cloning Kit Dual (Invitrogen), and nucleotide sequences were determined for individual clones using a dRhodamine Terminator Cycle Sequencing Ready Reaction Kit (Applied Biosystems).

Chain of T7 RNA polymerase (P00573 whole entry): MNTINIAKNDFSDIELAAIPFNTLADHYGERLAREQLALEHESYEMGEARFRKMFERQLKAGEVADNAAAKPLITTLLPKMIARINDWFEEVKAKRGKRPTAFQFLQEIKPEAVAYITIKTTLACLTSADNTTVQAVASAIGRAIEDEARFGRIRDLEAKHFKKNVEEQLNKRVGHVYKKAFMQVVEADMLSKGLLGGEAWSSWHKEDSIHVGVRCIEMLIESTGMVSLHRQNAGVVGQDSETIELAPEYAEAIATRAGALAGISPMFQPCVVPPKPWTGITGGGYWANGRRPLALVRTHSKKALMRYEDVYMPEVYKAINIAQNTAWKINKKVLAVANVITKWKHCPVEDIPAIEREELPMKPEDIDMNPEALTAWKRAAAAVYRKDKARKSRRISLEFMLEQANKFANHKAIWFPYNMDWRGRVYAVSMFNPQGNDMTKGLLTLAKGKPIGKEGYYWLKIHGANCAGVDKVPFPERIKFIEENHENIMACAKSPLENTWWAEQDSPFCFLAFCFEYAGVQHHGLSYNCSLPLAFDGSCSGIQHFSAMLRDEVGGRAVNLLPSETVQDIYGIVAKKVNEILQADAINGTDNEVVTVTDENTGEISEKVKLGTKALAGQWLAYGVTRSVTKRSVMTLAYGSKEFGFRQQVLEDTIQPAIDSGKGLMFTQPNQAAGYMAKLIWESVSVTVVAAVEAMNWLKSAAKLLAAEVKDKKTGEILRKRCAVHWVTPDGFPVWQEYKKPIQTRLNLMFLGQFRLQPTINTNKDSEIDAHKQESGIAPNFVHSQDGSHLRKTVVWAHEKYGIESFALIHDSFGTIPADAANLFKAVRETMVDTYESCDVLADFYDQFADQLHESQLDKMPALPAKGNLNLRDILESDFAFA
Chain of B-Raf RBD/Ras interaction (P15056 149-226): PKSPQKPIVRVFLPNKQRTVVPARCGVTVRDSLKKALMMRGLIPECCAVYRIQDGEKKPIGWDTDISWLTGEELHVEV

B1: RNA 9A: anti-(Raf-1) RNA aptamer binding to Raf-1 RBD, 100 bases, SEQ ID NO: 1 (nucleic acid)
chain: GGGAGUGGAGGAAUUCAUCGAGGCAUAUGUCGACUCCGUCUUCCUUCAAACCAGUUAUAAAUUGGUUUUAGCAUAUGCCUUAGCGACAGCAAGCUUCUGC
modifications: chemistry not given here
In the case of B1, the Filter binding % [1] is reported as 0.2 (0.1) %, the misincorporation (T7 RNA polymerase; [α-32P]ATP label) is reported as 0.45% and the “5Iyp (number of nucleotides in transcription product)” value (T7 RNA polymerase; [α-32P]ATP label) is reported as 0.10(0). For the same molecule, the misincorporation (T7 RNA polymerase; [α-32P]GTP label) was 0.41%, the “5Iyp (number of nucleotides in transcription product)” value (T7 RNA polymerase; [α-32P]GTP label) was 0.09(0) and the “Raf-1 RBD binding %” value (Raf-1 RBD) was 25 (5) %. The “complex formation with GST-RBD (gel shift pattern)” value (Raf-1 GST-RBD) was 1:1 complex, the “inhibition of B-Raf RBD/Ras interaction” value [2] was “did not inhibit” and the “inhibition of Ras-induced Raf-1 activation” value [3] was “strongly inhibited”. For the same molecule, the “inhibitory capacity against Raf-1 RBD/Ras interaction” value [4] was “higher inhibitory capacity”.
